The supplement of paper PMC9170038
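Further: bound reporter read as fluorescence of individual clusters on recovered sequencing chips by microscopy, with normalized cluster intensities fitted with a binding model.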

These sequences were tested on K4 kissing-loop RNA reporter (assay: apparent KD of K4 kissing-loop reporter; higher = weaker reporter binding). Settings: Eterna round: R107; input ligand: theophylline 20 uM.
Protocol: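 RNA-MaP round R107: designed RNA switches with theophylline, tryptophan, arginine or FMN aptamers are transcribed on-chip within common flanks. They are titrated with a labelled K4 kissing-loop RNA reporter in RNA-MaP buffer (100 mM Tris pH 7.5, 80 mM KCl, 4 mM MgCl2), without ligand or with the indicated ligand. Median apparent KD per design.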
In the case of “UGAUACCAGACUGAUACCAGCCACAGAGUCAAAGACUCUGAAAAGGAAACCAGUGAUGUUGGCCCUUGGCAGCAGUCUGGUAUCU [TheoBX 15 #SwitchBubble #StaticStem]”, the “apparent KD of K4 kissing-loop reporter” value is reported as 152 nM.
In the case of “GUAUCGCUAGGAGGAUAUUUCAAUUUGACUCUUUGAGUUAAUACGGAGUGAUGUUCCGAUUUACGGAAAGAAGGCCUAGUGAUAC [FMN B 13]”, the “apparent KD of K4 kissing-loop reporter” value is reported as 219 nM.
For “UUUAGAUGAAGUGAUACCAGACUUGAAAGUGAUGUUUUCCAAUAAUUUAAAUUAUUAGCUGUCCCUUGGCAGCACAGUUUAUUUA [JR_ExcTheophyB_Sub008]”, the “apparent KD of K4 kissing-loop reporter” value was 346 nM.
For “AGUUCUUGCCGAAGGAGCGAGGCAGAGUGAUGUUCUGCAAGAGGUCGAAAGACCUCUCUGCCUCAGGUAGGUCGCGGCAUGAACA [Omei KL Arginine B Exc A v3]”, the “apparent KD of K4 kissing-loop reporter” value was 356 nM.
“AUUUUUAACUGAGGAUAUCGAAUUUAUGUAGUGAUGUUACUUUAAAUUAAAAUUUUAAUUUCUUAACGAGAAGGCAGAAUAAUUA [JR_SSFMNB_Sub025]” was tested, and the “apparent KD of K4 kissing-loop reporter” value was 204 nM.
With “UUUCGUCUCUGAGGAUAUCAGAGGAGAGUGAUGUUCUCCCAUAGCCCAGUGAUGUUGGAUGCUAUCUGAGAAGGCAGUGGGCGAA [Same State FMN B GF 13]” the “apparent KD of K4 kissing-loop reporter” value was 144 nM.
In the case of “AUACGUUUUUGUGAUACCAGACAUGUGAGUGAUGUUUACAUAUAUAUUUAAUAUUUAGCUGUCCCUUGGCAGCACUGUUUAUUUA [JR_ExcTheophyB_Sub004]”, the “apparent KD of K4 kissing-loop reporter” value is reported as 437 nM.
For “ACAGGAUCGAAAGAUCCUGAGCAGUCAAAACGAGGACCGGUACGGCCGCCACUCGAAUAAGAGAGUGAUGUUCUCGACUGCAAAA [Omei inspired 10 - Reversed #K4Late]”, the “apparent KD of K4 kissing-loop reporter” value was 1050 nM.
For “AGAACUGUCUUGGAUACCAGUGAUGUUGGUAUCGAUGUGUGAGUGCAAAGCGUCCCACAUCGCCCUUGGCAGCUAAGACAGUUCA [Omei KL Theo B Exc A v5]”, the “apparent KD of K4 kissing-loop reporter” value was 375 nM.
With “ACGUAGUUCUAGGAUACCAGCCAAGAUGCCAGGACAAAAGUCCUGGCAGCCAGUGAUGUUGGCCCUUGGCAGCCUAGAACUACGA [Omei KL Theo B Exc B v9]” the “apparent KD of K4 kissing-loop reporter” value was 121 nM.
In the case of “AGUAUGGCAACAUUGCAAGUAGCCGUACCACGAGGACCGGUACGGCCGCCACUCGAUAACUUGCAGUGAUGUUGCAAGUAAGAAU [(T)''-(K)'-(T)'-(T1)-(T2)-(K1)-(K2)_Design4]”, the “apparent KD of K4 kissing-loop reporter” value is reported as 268 nM.
In the case of “UGACGUAAAACCGUCGAAUCGCUGUGAGAAGGAGCGGUAAAAUUGCCAGGUAGGUCGCUCACAGCCUCACAGUGAUGUUGUGGGA [Sovetequ]”, the “apparent KD of K4 kissing-loop reporter” value is reported as 199 nM.
For “ACAUGUUCCAGUGAUGUUGGCGUACGUGAUACCAGACGAAUAAAAGUCCCUUGGCAGCACAAAUAAGCCAAGAUAGGUGAAUGAU [#04 K4 Theophylline A Exclusion]”, the “apparent KD of K4 kissing-loop reporter” value was 538 nM.
In the case of “AGCUCAGAGUGACUCGAUAAGAGUCACAAACGAGGACCGGUACGGCCGCCACUCGAAACAAAGAGAGUGAUGUUCUCGCUGAGCA [FiskerMod 10 - Jieux - Same State Tryptophan A]”, the “apparent KD of K4 kissing-loop reporter” value is reported as 207 nM.
In the case of “CUAGGCAACACAGGAUAUGUCCGAGUGAUGUUCGAGCCUUUCCAUUGACGAAAUUAAUGGUGGGUGACAGAAGGGUGAGUGCUGA [Xezaqu]”, the “apparent KD of K4 kissing-loop reporter” value is reported as 585 nM.
For “UUGCAUGCUAGGGAAACCUAGCAUGCAUGCCGAGGACCGGUACGGCCGCCACUCGAACGAGUGAUGUUCGUUGACCAAAAUAAAA”, the “apparent KD of K4 kissing-loop reporter” value was 635 nM.
With “CGCAGUGAUGUUGCUAUUAUUCUUGAUUAACGAGGACCGGUACGGCCGCCACUCGAUUUCUAUCUAAUUUAGUGUUAUGUUGAUU [JR_ExcTryptoA_Sub007]” the “apparent KD of K4 kissing-loop reporter” value was 447 nM.
“AAGCAGUCACUCGAAACCAUCGAAGAUGGUCGAGGACCGGUACGGCCGCCACUCGGAGUGAUGUUCCGAAGACUGCAAAAUAAAA [#SwitchBubble 10]” was tested, and the “apparent KD of K4 kissing-loop reporter” value was 277 nM.
“UGGCGGCAAGGGUUAUUGGAAAGUAUUCGACGAGGACCGGUACGGCCGCCACUCGAACACCAGUGAUGUUGGUCUGGCUUAAGCC [Exclusion Tryptophan A GF 21]” was tested, and the “apparent KD of K4 kissing-loop reporter” value was 275 nM.
For “UGAGUUAGACAAAAGUCUAGCUCUGGUGAAGGAGCGUCCGAAAGGACAGGUAGGUCGCACCACCUGAGUGAUGUUCAGAAUCCUU [KL-SSArg-A22]”, the “apparent KD of K4 kissing-loop reporter” value was 762 nM.
In the case of “UUUGUAUCGGGAAGGAGCGUGAAUGAUAAUGAAUAUAGUGAUGUUAUAUAUAAGAACGAAUCACAGGUAGGUCGCCCGGAUGAGU [SSArgB.N]”, the “apparent KD of K4 kissing-loop reporter” value is reported as 548 nM.
“CGAGAGCUCUUGUUUGGAUGUGUUUUAUGGCGAGGACCGGUACGGCCGCCACUCGGGUGAUGUUAGUGAUGUUGAUGUAGUGAUG [qzxmullin]” was tested, and the “apparent KD of K4 kissing-loop reporter” value was 154 nM.
“UAUCCUCGCUGAAGGAGCGAGCAUGAAGCAGUGAUGUUCCGAGCGAGUGAUGUUCGCAUAGCUCAGGUAGGUCGCAGUGGGAUUU [Same State Arginie B GF 17]” was tested, and the “apparent KD of K4 kissing-loop reporter” value was 517 nM.
In the case of “GGUGACAGCCAGGAGUGAUGUAUAGAAUAGCGAGGACCGGUACGGCCGCCACUCGUGAAGAGAAGGGAGUGAUGUUCCGUAAUGG [Kazoo C]”, the “apparent KD of K4 kissing-loop reporter” value is reported as 386 nM.
“UUGGAUUGAUGAGAGUUGAUUUGGUAGGAAGGAGCGGCCGAAAGGCCAGGUAGGUCGCCUAUUGACAGUGAUGUUGUUAUAUGGU [#16]” was tested, and the “apparent KD of K4 kissing-loop reporter” value was 489 nM.
With “UAUCUAUGCUCGGCCGCCACUAGGACCGGGAGGUAACUAGUGAUGUUAGUAUCUUCGGCCGCCACUAGGACCGGGAGUGUAGAUA [KL-SSTryp-B17 #DoubleAptamer]” the “apparent KD of K4 kissing-loop reporter” value was 95.5 nM.
